According to paper PMC7994445:

Columns and labels:
[1] = target: PfActin-1 filaments (Plasmodium falciparum) (UniProt Q8I4X0)
[2] = target: rabbit skeletal actin filaments (rabbit) (UniProt P68135)
[3] = target: smooth muscle actin filaments (UniProt P62736)

Sequence of Full-length phosphorylated smooth muscle myosin (P10587 whole entry, looked up): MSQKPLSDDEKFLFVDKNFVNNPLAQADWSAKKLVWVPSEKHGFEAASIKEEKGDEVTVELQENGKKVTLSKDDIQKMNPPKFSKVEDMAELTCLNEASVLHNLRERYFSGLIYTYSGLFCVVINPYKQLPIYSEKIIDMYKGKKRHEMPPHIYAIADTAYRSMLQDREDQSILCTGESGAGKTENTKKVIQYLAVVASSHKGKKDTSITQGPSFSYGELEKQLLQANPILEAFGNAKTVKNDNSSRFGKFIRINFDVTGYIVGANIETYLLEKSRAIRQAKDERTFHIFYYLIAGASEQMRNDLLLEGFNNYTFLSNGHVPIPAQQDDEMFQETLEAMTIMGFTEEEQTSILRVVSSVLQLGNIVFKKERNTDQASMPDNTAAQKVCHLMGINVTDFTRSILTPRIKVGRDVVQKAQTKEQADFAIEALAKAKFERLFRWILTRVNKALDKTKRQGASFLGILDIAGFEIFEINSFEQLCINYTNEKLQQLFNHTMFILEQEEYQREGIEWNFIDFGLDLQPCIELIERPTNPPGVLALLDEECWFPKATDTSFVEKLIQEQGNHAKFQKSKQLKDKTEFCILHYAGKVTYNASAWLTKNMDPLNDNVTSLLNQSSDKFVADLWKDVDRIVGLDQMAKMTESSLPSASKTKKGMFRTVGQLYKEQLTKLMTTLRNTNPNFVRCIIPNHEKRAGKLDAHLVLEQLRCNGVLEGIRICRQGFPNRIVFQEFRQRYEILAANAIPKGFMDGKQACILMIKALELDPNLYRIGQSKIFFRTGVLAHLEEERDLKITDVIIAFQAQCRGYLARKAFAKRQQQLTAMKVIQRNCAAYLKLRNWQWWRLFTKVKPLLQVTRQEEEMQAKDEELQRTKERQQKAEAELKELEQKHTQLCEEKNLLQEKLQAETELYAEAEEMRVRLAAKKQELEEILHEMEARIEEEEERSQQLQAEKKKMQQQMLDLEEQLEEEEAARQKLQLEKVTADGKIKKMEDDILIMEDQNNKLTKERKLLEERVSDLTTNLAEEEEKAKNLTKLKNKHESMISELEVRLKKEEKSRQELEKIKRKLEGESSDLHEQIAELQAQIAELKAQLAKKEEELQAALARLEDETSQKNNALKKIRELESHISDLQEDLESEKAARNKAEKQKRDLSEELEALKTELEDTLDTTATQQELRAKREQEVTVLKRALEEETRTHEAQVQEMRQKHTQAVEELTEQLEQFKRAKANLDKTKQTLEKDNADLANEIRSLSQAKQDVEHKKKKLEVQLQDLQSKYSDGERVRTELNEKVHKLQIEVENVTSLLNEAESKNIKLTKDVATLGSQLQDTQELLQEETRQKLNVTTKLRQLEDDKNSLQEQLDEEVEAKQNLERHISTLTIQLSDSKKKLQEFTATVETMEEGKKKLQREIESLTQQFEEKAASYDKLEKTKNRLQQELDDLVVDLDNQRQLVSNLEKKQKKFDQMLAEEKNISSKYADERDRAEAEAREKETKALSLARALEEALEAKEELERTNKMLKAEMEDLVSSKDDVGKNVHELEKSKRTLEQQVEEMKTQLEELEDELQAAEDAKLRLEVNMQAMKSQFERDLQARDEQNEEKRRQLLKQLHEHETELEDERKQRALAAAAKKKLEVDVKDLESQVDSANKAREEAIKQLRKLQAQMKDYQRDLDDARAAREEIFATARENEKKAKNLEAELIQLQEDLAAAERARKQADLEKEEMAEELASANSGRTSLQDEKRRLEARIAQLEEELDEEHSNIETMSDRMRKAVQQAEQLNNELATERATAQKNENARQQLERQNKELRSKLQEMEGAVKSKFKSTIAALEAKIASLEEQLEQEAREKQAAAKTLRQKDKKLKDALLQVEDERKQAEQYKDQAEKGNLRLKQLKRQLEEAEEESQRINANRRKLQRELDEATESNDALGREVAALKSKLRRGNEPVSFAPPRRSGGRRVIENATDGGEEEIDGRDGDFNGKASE

Substance: Full-length phosphorylated smooth muscle myosin (from UniProt P10587 1-1979) (complex)
- in vitro motility speed, JAS-stabilized PfAct1 filaments moved by myosin adhered to the coverslip, 30 °C [1]: 0.53 µm/s
- in vitro motility speed, skeletal muscle actin filaments moved by myosin adhered to the coverslip, 30 °C [2]: 0.62 µm/s
- in vitro motility speed, smooth muscle actin filaments moved by myosin adhered to the coverslip, 30 °C [3]: 0.51 µm/s

Substance: PfMyoA with a C-terminal biotin tag (from UniProt Q8IDR3 1-818) (complex)
- in vitro motility speed, JAS-stabilized PfAct1 filaments moved by myosin held on the coverslip, 30 °C [1]: 3.55 µm/s
- in vitro motility speed, unstabilized PfAct1 filaments (no JAS) moved by myosin held on the coverslip, 30 °C [1]: 3.98 µm/s
- in vitro motility speed, skeletal muscle actin filaments moved by myosin held on the coverslip, 30 °C [2]: 3.85 µm/s
- in vitro motility speed, smooth muscle actin filaments moved by myosin held on the coverslip, 30 °C [3]: 4.21 µm/s
